# Measurements published in patent publication US20030129296A1.
# Key:
# [1] = biological target: mouse IgG labeled with Alexa Fluor 488 (Molecular Probes, Inc., A-11243 anti-biotin, mouse monoclonal 2F5, Alexa Fluor 488 conjugate) (mouse); assay: ratio of particle fluorescence to film background fluorescence; labeled target at 1 nM, 2 h
# [2] = biological target: mouse IgG labeled with Alexa Fluor 488 (Molecular Probes, Inc., A-11243 anti-biotin, mouse monoclonal 2F5, Alexa Fluor 488 conjugate) (mouse); assay: ratio of particle fluorescence to film background fluorescence; labeled target at 100 nM, 2 h
# [3] = biological target: mouse IgG labeled with Alexa Fluor 488 (Molecular Probes, Inc., A-11243 anti-biotin, mouse monoclonal 2F5, Alexa Fluor 488 conjugate) (mouse); assay: net median particle fluorescence divided by that of the blank (0 nM) particles; labeled target at 1 nM, 2 h
# [4] = biological target: mouse IgG labeled with Alexa Fluor 488 (Molecular Probes, Inc., A-11243 anti-biotin, mouse monoclonal 2F5, Alexa Fluor 488 conjugate) (mouse); assay: net median particle fluorescence divided by that of the blank (0 nM) particles; labeled target at 100 nM, 2 h
# [5] = biological target: mouse IgG labeled with Alexa Fluor 488 (Molecular Probes, Inc., A-11243 anti-biotin, mouse monoclonal 2F5, Alexa Fluor 488 conjugate) (mouse); assay: fluorescence imaging of film-immobilized capture particles, film background subtracted; labeled target at 100 nM, 2 h
# [6] = biological target: mouse IgG labeled with Alexa Fluor 488 (Molecular Probes, Inc., A-11243 anti-biotin, mouse monoclonal 2F5, Alexa Fluor 488 conjugate) (mouse); assay: fluorescence imaging of film-immobilized capture particles; labeled target at 1 nM, 2 h
# [7] = biological target: mouse IgG labeled with Alexa Fluor 488 (Molecular Probes, Inc., A-11243 anti-biotin, mouse monoclonal 2F5, Alexa Fluor 488 conjugate) (mouse); assay: ratio of particle fluorescence to film background fluorescence; labeled target at 10 nM, 2 h
# [8] = biological target: mouse IgG labeled with Alexa Fluor 488 (Molecular Probes, Inc., A-11243 anti-biotin, mouse monoclonal 2F5, Alexa Fluor 488 conjugate) (mouse); assay: fluorescence imaging of film-immobilized capture particles, film background subtracted; labeled target at 1 nM, 2 h
# [9] = biological target: mouse IgG labeled with Alexa Fluor 488 (Molecular Probes, Inc., A-11243 anti-biotin, mouse monoclonal 2F5, Alexa Fluor 488 conjugate) (mouse); assay: fluorescence imaging of film-immobilized capture particles; labeled target at 100 nM, 2 h
# [10] = biological target: mouse IgG labeled with Alexa Fluor 488 (Molecular Probes, Inc., A-11243 anti-biotin, mouse monoclonal 2F5, Alexa Fluor 488 conjugate) (mouse); assay: fluorescence imaging of film-immobilized capture particles, film background subtracted; labeled target at 10 nM, 2 h
# [11] = biological target: mouse IgG labeled with Alexa Fluor 488 (Molecular Probes, Inc., A-11243 anti-biotin, mouse monoclonal 2F5, Alexa Fluor 488 conjugate) (mouse); assay: net median particle fluorescence divided by that of the blank (0 nM) particles; labeled target at 10 nM, 2 h
# [12] = biological target: mouse IgG labeled with Alexa Fluor 488 (Molecular Probes, Inc., A-11243 anti-biotin, mouse monoclonal 2F5, Alexa Fluor 488 conjugate) (mouse); assay: fluorescence imaging of film-immobilized capture particles; labeled target at 10 nM, 2 h
# [13] = biological target: Cy3-labeled mouse monoclonal antibody (Amersham) (mouse); assay: fluorescence imaging of 0.8 µm capture particles on epoxy-hydrogel slides; dilution series of the Cy3-labeled target, overnight incubation
substance,measurement,setting,value
"goat anti-mouse IgG(Fc) coated particles, 3.2 µm in diameter (Spherotech, Inc., MPFc-30-5) (antibody)",MPF/FBF,[1],5.97
same,MPF/FBF,[2],6.41
same,MPF/MPF0,[3],58.2
same,MPF/MPF0,[4],107
same,"Net Median Particle Fluorescence, MPF",[5],43 cps
same,"Particle Fluorescence Rate, Average",[6],29.6 cps
same,"Particle Fluorescence Rate, Maximum",[6],62.6 cps
same,"Particle Fluorescence Rate, Median",[6],28.1 cps
same,"Particle Fluorescence Rate, Minimum",[6],14.8 cps
same,MPF/FBF,[7],7.45
same,"Net Median Particle Fluorescence, MPF",[8],23 cps
same,"Particle Fluorescence Rate, Average",[9],50.7 cps
same,"Particle Fluorescence Rate, Maximum",[9],74.1 cps
same,"Particle Fluorescence Rate, Median",[9],50.8 cps
same,"Particle Fluorescence Rate, Minimum",[9],34.1 cps
same,"Net Median Particle Fluorescence, MPF",[10],40 cps
same,MPF/MPF0,[11],99.5
same,"Particle Fluorescence Rate, Average",[12],44.5 cps
same,"Particle Fluorescence Rate, Maximum",[12],66.2 cps
same,"Particle Fluorescence Rate, Median",[12],46.4 cps
same,"Particle Fluorescence Rate, Minimum",[12],12 cps
0.8-µm-diameter particles coated with goat-anti-mouse antibody,detection level,[13],1 pM
